Laboratory results from patent publication US20160355588A1 (Zymeworks, published 2016).
Read-outs that look alike come from different tables or passages of the source.

What was measured:
Experiment in all cases: cell-based or functional assay
CD20 on Raji B cells [1] = biological target: T1, CD20 on Raji B cells (human, UniProt P11836 1-297)
T1 sequence (looked up): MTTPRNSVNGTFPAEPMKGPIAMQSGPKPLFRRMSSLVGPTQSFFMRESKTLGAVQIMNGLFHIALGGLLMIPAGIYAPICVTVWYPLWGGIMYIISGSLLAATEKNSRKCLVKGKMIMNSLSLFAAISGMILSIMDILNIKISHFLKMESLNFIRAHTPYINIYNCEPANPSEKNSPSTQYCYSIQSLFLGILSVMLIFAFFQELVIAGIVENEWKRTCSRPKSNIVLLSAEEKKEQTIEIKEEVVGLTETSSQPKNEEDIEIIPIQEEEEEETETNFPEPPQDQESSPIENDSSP

CD19 on Raji B cells [2] = biological target: T2, CD19 on Raji B cells (human, UniProt P15391 20-556)
T2 sequence (looked up): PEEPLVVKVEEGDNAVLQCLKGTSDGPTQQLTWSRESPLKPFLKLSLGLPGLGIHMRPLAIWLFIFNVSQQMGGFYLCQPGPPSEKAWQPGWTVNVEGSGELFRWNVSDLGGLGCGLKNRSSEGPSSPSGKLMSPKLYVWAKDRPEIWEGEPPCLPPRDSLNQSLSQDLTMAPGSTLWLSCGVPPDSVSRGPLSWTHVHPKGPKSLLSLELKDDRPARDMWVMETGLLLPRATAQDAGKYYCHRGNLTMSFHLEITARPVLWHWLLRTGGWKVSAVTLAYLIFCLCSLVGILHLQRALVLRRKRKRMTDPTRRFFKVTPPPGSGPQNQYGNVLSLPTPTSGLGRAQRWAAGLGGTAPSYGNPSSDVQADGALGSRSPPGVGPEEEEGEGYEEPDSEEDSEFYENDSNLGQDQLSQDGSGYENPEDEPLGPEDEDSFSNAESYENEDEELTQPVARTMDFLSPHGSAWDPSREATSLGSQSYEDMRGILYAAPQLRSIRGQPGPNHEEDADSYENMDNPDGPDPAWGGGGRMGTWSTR

CD20 on Raji B cells [3] = biological target: T1, CD20 on Raji B cells; remark: listed apart in the source
CD19 on Raji B cells [4] = biological target: T2, CD19 on Raji B cells; remark: listed apart in the source

B1: v1821 (bispecific antibody, human IgG1, kappa)
heavy 1: QVQLVQSGGGVVQPGRSLRLSCKASGYTFTSYTMHWVRQAPGKGLEWIGYINPSSGYTKYNQKFKDRFTISADKSKSTAFLQMDSLRPEDTGVYFCARWQDYDVYFDYWGQGTPVTVSSASTKGPSVFPLAPSSKSTSGGTAALGCLVKDYFPEPVTVSWNSGALTSGVHTFPAVLQSSGLYSLSSVVTVPSSSLGTQTYICNVNHKPSNTKVDKKVEPKSCDKTHTCPPCPAPELLGGPSVFLFPPKPKDTLMISRTPEVTCVVVDVSHEDPEVKFNWYVDGVEVHNAKTKPREEQYNSTYRVVSVLTVLHQDWLNGKEYKCKVSNKALPAPIEKTISKAKGQPREPQVYVYPPSRDELTKNQVSLTCLVKGFYPSDIAVEWESNGQPENNYKTTPPVLDSDGSFALVSKLTVDKSRWQQGNVFSCSVMHEALHNHYTQKSLSLSPGK
heavy 2: not shown
light: QIVLSQSPAILSASPGEKVTMTCRASSSVSYIHWFQQKPGSSPKPWIYATSNLASGVPVRFSGSGSGTSYSLTISRVEAEDAATYYCQQWTSNPPTFGGGTKLEIKRTVAAPSVFIFPPSDEQLKSGTASVVCLLNNFYPREAKVQWKVDNALQSGNSQESVTEQDSKDSTYSLSSTLTLSKADYEKHKVYACEVTHQGLSSPVTKSFNRGEC
Q: B1 was tested. Which “% Bridging Jurkat/Raji (whole cell FACS T:B bridging; CD3 on Jurkat bridged to the B cell antigen on Raji)” value (shortened to “% Bridging Jurkat/Raji”) (CD20 on Raji B cells [1]) did it give?
A: 7.3%

B2: v5852 (bispecific antibody, human IgG1, kappa, L234A L235A)
heavy: QVQLVQSGGGVVQPGRSLRLSCKASGYTFTRYTMHWVRQAPGKGLEWIGYINPSRGYTNYNQKVKDRFTISRDNSKNTAFLQMDSLRPEDTGVYFCARYYDDHYCLDYWGQGTPVTVSSASTKGPSVFPLAPSSKSTSGGTAALGCLVKDYFPEPVTVSWNSGALTSGVHTFPAVLQSSGLYSLSSVVTVPSSSLGTQTYICNVNHKPSNTKVDKKVEPKSCDKTHTCPPCPAPELLGGPSVFLFPPKPKDTLMISRTPEVTCVVVDVSHEDPEVKFNWYVDGVEVHNAKTKPREEQYNSTYRVVSVLTVLHQDWLNGKEYKCKVSNKALPAPIEKTISKAKGQPREPQVYVYPPSRDELTKNQVSLTCLVKGFYPSDIAVEWESNGQPENNYKTTPPVLDSDGSFALVSKLTVDKSRWQQGNVFSCSVMHEALHNHYTQKSLSLSPGK
chain: EVQLVESGGGLVKPGGSLKLSCAASGYTFTSYVMHWVRQAPGKGLEWIGYINPYNDGTKYNEKFQGRVTISSDKSISTAYMELSSLRSEDTAMYYCARGTYYYGTRVFDYWGQGTLVTVSSGGGGSGGGGSGGGGSDIVMTQSPATLSLSPGERATLSCRSSKSLQNVNGNTYLYWFQQKPGQSPQLLIYRMSNLNSGVPDRFSGSGSGTEFTLTISSLEPEDFAVYYCMQHLEYPITFGAGTKLEIKAAEPKSSDKTHTCPPCPAPEAAGGPSVFLFPPKPKDTLMISRTPEVTCVVVSVSHEDPEVKFNWYVDGVEVHNAKTKPREEQYNSTYRVVSVLTVLHQDWLNGKEYKCKVSNKALPAPIEKTISKAKGQPREPQVYVLPPSRDELTKNQVSLLCLVKGFYPSDIAVEWESNGQPENNYLTWPPVLDSDGSFFLYSKLTVDKSRWQQGNVFSCSVMHEALHNHYTQKSLSLSPGK
light: DIQMTQSPSSLSASVGDRVTITCSASSSVSYMNWYQQTPGKAPKRWIYDTSKLASGVPSRFSGSGSGTDYTFTISSLQPEDIATYYCQQWSSNPFTFGQGTKLQITRTVAAPSVFIFPPSDEQLKSGTASVVCLLNNFYPREAKVQWKVDNALQSGNSQESVTEQDSKDSTYSLSSTLTLSKADYEKHKVYACEVTHQGLSSPVTKSFNRGEC
Q: How did the “% Bridging Jurkat/Raji” value (CD19 on Raji B cells [2]) turn out when B2 was run?
A: 30.4%

B3: v6325 (bispecific antibody, human IgG1, kappa)
heavy: QVQLVQSGGGVVQPGRSLRLSCKASGYTFTRYTMHWVRQAPGKGLEWIGYINPSRGYTNYNQKVKDRFTISRDNSKNTAFLQMDSLRPEDTGVYFCARYYDDHYCLDYWGQGTPVTVSSASTKGPSVFPLAPSSKSTSGGTAALGCLVKDYFPEPVTVSWNSGALTSGVHTFPAVLQSSGLYSLSSVVTVPSSSLGTQTYICNVNHKPSNTKVDKKVEPKSCDKTHTCPPCPAPELLGGPSVFLFPPKPKDTLMISRTPEVTCVVVDVSHEDPEVKFNWYVDGVEVHNAKTKPREEQYNSTYRVVSVLTVLHQDWLNGKEYKCKVSNKALPAPIEKTISKAKGQPREPQVYVYPPSRDELTKNQVSLTCLVKGFYPSDIAVEWESNGQPENNYKTTPPVLDSDGSFALVSKLTVDKSRWQQGNVFSCSVMHEALHNHYTQKSLSLSPGK
chain: not shown
light: DIQMTQSPSSLSASVGDRVTITCSASSSVSYMNWYQQTPGKAPKRWIYDTSKLASGVPSRFSGSGSGTDYTFTISSLQPEDIATYYCQQWSSNPFTFGQGTKLQITRTVAAPSVFIFPPSDEQLKSGTASVVCLLNNFYPREAKVQWKVDNALQSGNSQESVTEQDSKDSTYSLSSTLTLSKADYEKHKVYACEVTHQGLSSPVTKSFNRGEC
Q: How did the “% Bridging Jurkat/Raji” value (CD20 on Raji B cells [3]) turn out when B3 was run?
A: 15.7%

B4: v5851 (bispecific antibody)
chain: not shown
heavy: not shown
light: DIVMTQSPATLSLSPGERATLSCRSSKSLQNVNGNTYLYWFQQKPGQSPQLLIYRMSNLNSGVPDRFSGSGSGTEFTLTISSLEPEDFAVYYCMQHLEYPITFGAGTKLEIKRTVAAPSVFIFPPSDEQLKSGTASVVCLLNNFYPREAKVQWKVDNALQSGNSQESVTEQDSKDSTYSLSSTLTLSKADYEKHKVYACEVTHQGLSSPVTKSFNRGEC
Q: For B4, which “% Bridging Jurkat/Raji” value (CD19 on Raji B cells [4]) is on record?
A: 23.2%
